Data: paper PMC7374170 (2020)
“And” between values parts separate entries of the source, which are not always exact repeats. Equal values may be shown once.

B1: JMA2 peptide with the Leu-to-Ile substitution (peptide)
chain: NQALLRIIKETEFK
B2: TRIB3 (tribbles pseudokinase 3), purified protein (natural protein)
chain: MRATPLAAPAGSLSRKKRLELDDNLDTERPVQKRARSGPQPRLPPCLLPLSPPTAPDRATAVATASRLGPYVLLEPEEGGRAYQALHCPTGTEYTCKVYPVQEALAVLEPYARLPPHKHVARPTEVLAGTQLLYAFFTRTHGDMHSLVRSRHRIPEPEAAVLFRQMATALAHCHQHGLVLRDLKLCRFVFADRERKKLVLENLEDSCVLTGPDDSLWDKHACPAYVGPEILSSRASYSGKAADVWSLGVALFTMLAGHYPFQDSEPVLLFGKIRRGAYALPAGLSAPARCLVRCLLRREPAERLTATGILLHPWLRQDPMPLAPTRSHLWEAAQVVPDGLGLDEAREEEGDREVVLYG
B3: JMA2 peptide with the Leu-to-Val substitution (peptide)
chain: NQALLRIVKETEFK

What was measured:
[1] = biological target: B2; test: SPR
[2] = biological target: T1, SAH-JGZ4, stapled JGZ peptide (UniProt P00533, two units of nonnatural alkenyl amino acids S5 at the relative positions i and i + 4, cross-linked by ring-closing olefin metathesis); test: FP
JGZ-M15 = test: SPR
JGZ-M6 = test: SPR
JGZ-M13 = test: SPR
JGZ-M1 = test: SPR
JGZ-M10 = test: SPR
JGZ-M4 = test: SPR
JGZ-M12 = test: SPR
JGZ-M2 = test: SPR
JGZ-M11 = test: SPR
[3] = biological target: T1, SAH-JGZ4, stapled JGZ peptide; test: SPR
SAH-JGZ2 = test: SPR
[4] = biological target: T1, SAH-JGZ4, stapled JGZ peptide; test: SPR; remark: listed apart in the source

| Binder | Kd [1] [nM] | Kd [2] [nM] | Kd (JGZ-M15) [nM] | Kd (JGZ-M6) [nM] | Kd (JGZ-M13) [nM] | Kd (JGZ-M1) [nM] | Kd (JGZ-M10) [nM] | Kd (JGZ-M4) [nM] | Kd (JGZ-M12) [nM] | Kd (JGZ-M2) [nM] | Kd (JGZ-M11) [nM] | Kd [3] [nM] | Kd (SAH-JGZ2) [nM] | Kd [4] |
| --- | --- | --- | --- | --- | --- | --- | --- | --- | --- | --- | --- | --- | --- | --- |
| B1 | 1060 | – | – | – | – | – | – | – | – | – | – | – | – | – |
| B2 | – | 55.4 | 1160 | 1210 | 796 | 642 | 337 | 2470 | 402 | 424 | 892 | 137 | 235 | 84.1 nM and 66.1 nM |
| B3 | 5370 | – | – | – | – | – | – | – | – | – | – | – | – | – |
